The labels stand for the following.
T1: mouse CD117 (mouse, UniProt P05532)
T1 construct: antigen of the Carterra SPR kinetics; also called murine CD117
T1 sequence (receptor, looked up): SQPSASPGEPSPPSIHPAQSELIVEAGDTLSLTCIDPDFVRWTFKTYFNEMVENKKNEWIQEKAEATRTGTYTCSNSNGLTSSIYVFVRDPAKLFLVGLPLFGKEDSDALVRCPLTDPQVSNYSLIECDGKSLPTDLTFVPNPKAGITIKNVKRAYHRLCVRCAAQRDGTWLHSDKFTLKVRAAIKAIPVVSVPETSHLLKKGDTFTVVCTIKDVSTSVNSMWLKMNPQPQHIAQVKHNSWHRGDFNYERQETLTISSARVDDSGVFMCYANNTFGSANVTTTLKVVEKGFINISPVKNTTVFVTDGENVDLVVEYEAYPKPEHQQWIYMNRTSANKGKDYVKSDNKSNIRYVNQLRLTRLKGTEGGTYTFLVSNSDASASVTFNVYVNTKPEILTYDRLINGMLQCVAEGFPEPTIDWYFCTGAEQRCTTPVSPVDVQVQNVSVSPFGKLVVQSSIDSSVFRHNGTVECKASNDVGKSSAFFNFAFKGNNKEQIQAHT

B1: CD117-13 (antibody, human IgG1, kappa, V domains shown)
VH: EVQLLESGGGLVQPGGSLRLSCAASGFTLTSYAMSWVRQAPGKGLEWVSTISGSGGYTYYADSVKGRFTISRDNSKNTLYLQMNSLRAEDTAVYYCARDSGYDRGLDYWGQGTLVTVSS
VL: DIQMTQSPSSLSASVGDRVTITCRASQNIYTYLNWYQQKPGKAPKLLIYDASSLHSGVPSRFSGSGSGTDFTLTISSLQPEDFATYYCQQSSSTPYTFGGGTKVEIKR
notes: detected with anti-human IgG in FACS
B2: CD117-18 (antibody, human IgG1, kappa, V domains shown)
VH: EVQLLESGGGLVQPGGSLRLSCAASGFTFSDYSMNWVRQAPGKGLEWVSAITGSGGNTFYADSVKGRFTISRDNSKNTLYLQMNSLRAEDTAVYYCARSNYEQDVFDIWGQGTLVTVSS
VL: B1 VL with N28T, T31R, S53D, H55Q, S92Y, T94I, Y96I
notes: as for B1
B3: CD117-20 (antibody, human IgG1, kappa, V domains shown)
VH: EVQLLESGGGLVQPGGSLRLSCAASGFTFSSDAMNWVRQAPGKGLEWVSGISGSGGYTYYADSVKGRFTISRDNSKNTLYLQMNSLRAEDTAVYYCARSGNVVGDGMDVWGQGTLVTVSS
VL: B1 VL with Y30R, T31R, S53T, H55E, S92H, S93T, Y96L
notes: as for B1
B4: CD117-12 (antibody, human IgG1, kappa, V domains shown)
VH: EVQLLESGGGLVQPGGSLRLSCAASGITFSSYAMTWVRQAPGKGLEWVSAISSSGTGTYYADSVKGRFTISRDNSKNTLYLQMNSLRAEDTAVYYCARERAPKDFGSSGYSFDYWGQGTLVTVSS
VL: B1 VL with N28S, Y30D, T31I, D50K, H55Q, S92Y, S93T, T94V, Y96I
notes: as for B1
B5: CD117-11 (antibody, human IgG1, kappa, V domains shown)
VH: EVQLLESGGGLVQPGGSLRLSCAASGFTFGNFAMSWVRQAPGKGLEWVSLISGSGGNTYYADSVKGRFTISRDNSKNTLYLQMNSLRAEDTAVYYCARGDGVNGFDYWGQGTLVTVSS
VL: B1 VL with N28S, Y30P, D50A, A51T, S53T, H55E, S91T, S92Y
notes: as for B1
B6: CD117-10 (antibody, human IgG1, kappa, V domains shown)
VH: EVQLLESGGGLVQPGGSLRLSCAASGFIFSSYAMTWVRQAPGKGLEWVSSISGRGGNTYYADSVKGRFTISRDNSKNTLYLQMNSLRAEDTAVYYCAKMMDDFYDAFNMWGQGTLVTVSS
VL: B1 VL with N28S, Y30R, H55E, S92F, S93T
notes: as for B1
B7: CD117-5 (antibody, human IgG1, kappa, V domains shown)
VH: EVQLLESGGGLVQPGGSLRLSCAASGFIFTNYAMSWVRQAPGKGLEWVSAIGGSGSSTYYADSVKGRFTVSRDNSKNTLYLQMNSLRAEDTAVYYCVKGGYSYGDSFDFWGQGTLVTVSS
VL: B1 VL with N28S, I29V, Y30R, T31N, S53D, H55Q, S91G, S92Y, Y96W
notes: as for B1
B8: CD117-9 (antibody, human IgG1, kappa, V domains shown)
VH: EVQLLESGGGLVQPGGSLRLSCAASGFSFTNYAMSWVRQAPGKGLEWVSSISGSGGSTYYADSVKGRFTISRDNSKNTLYLQMNSLRAEDTAVYYCARGSGSYFGFDFWGQGTLVTVSS
VL: B1 VL with N28G, Y30G, D50A, H55Q, S56P, S92Y, S93R, T94P, Y96F
notes: as for B1
B9: CD117-19 (antibody, human IgG1, kappa, V domains shown)
VH: EVQLLESGGGLVQPGGSLRLSCAASGFSFSSYAMSWVRQAPGKGLEWVSAISGTGGNTYYADSVKGRFTISRDNSKNTLYLQMNSLRAEDTAVYYCARRNDFWSDAFDIWGQGTLVTVSS
VL: B1 VL with S92Y, T94S, P95S, Y96I
notes: as for B1
B10: CD117-17 (antibody, human IgG1, kappa, V domains shown)
VH: EVQLLESGGGLVQPGGSLRLSCAASGFTFSDYPMSWVRQAPGKGLEWVSAIGGSGGDTYYADSVKGRFTISRDNSKNTLYLQMNSLRAEDTAVYYCARGAYDGEGFDYWGQGTLVTVSS
VL: B1 VL with N28T, Y30S, T31G, S53T, H55Q, S56R, S91N, S92Y, S93R, Y96F
notes: as for B1

Data on ten molecules can be found in patent US20260001953A1 (TWIST BIOSCIENCE, published 2026).

Positions count from the first letter of the chain named.

T4 sequence (P10721 26-976 limits assumed): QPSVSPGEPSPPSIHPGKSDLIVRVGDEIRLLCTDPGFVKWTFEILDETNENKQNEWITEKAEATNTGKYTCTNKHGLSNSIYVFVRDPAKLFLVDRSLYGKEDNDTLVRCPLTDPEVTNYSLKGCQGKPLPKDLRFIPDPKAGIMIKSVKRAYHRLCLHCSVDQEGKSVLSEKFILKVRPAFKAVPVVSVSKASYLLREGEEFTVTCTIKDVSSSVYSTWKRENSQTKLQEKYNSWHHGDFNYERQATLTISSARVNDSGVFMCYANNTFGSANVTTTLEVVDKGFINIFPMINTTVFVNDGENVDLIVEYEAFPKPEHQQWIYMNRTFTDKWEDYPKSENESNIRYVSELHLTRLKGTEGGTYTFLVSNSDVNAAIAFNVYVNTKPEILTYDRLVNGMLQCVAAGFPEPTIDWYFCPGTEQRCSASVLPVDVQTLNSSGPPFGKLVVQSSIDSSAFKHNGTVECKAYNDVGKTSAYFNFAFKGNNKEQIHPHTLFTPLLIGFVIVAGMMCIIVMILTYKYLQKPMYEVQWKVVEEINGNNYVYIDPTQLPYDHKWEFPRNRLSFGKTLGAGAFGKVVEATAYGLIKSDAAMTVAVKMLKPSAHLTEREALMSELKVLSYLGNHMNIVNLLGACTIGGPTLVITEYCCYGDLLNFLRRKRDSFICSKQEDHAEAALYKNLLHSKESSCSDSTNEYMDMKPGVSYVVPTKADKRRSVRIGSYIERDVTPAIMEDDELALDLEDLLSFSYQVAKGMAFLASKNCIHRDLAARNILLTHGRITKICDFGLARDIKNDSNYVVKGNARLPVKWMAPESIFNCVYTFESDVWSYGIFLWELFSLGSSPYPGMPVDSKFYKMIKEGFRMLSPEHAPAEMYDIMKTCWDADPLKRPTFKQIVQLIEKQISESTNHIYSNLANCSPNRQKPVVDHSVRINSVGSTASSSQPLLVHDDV

The target of one test is T2, cyno CD117 (Macaca fascicularis, UniProt A0A7N9CP24).
T2 construct: antigen of the Carterra SPR kinetics; also called cynomolgus monkey CD117
T2 sequence (A0A7N9CP24 entry or part of it): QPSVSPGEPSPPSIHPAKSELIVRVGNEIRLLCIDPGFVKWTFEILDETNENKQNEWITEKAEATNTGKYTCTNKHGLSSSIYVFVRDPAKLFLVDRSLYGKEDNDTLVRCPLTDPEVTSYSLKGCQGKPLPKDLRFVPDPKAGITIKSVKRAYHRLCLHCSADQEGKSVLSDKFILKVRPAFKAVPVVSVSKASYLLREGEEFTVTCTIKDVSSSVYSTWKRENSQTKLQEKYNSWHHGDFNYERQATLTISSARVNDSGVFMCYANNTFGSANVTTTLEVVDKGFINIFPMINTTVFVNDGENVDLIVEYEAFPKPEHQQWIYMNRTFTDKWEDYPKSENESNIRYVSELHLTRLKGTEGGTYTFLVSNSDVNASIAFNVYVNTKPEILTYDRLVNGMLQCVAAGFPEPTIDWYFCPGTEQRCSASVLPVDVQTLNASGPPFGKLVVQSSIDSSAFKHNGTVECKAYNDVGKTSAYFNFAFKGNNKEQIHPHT
The test can be described thus: Carterra SPR, cyno CD117. As to the method:
(§1) To further evaluate the antibodies discovered during the screens, 21 clones were selected for detailed characterization and were analyzed for target binding kinetics by a Carterra SPR instrument. The binding kinetics of the anti-CD117 antibodies for human CD117, cynomolgus monkey CD117, and murine CD117 are shown in FIG. 29A-29B.
In general, Kd refers to the free concentration of one partner at which half of the binding sites on the other are occupied at equilibrium, for simple one-to-one binding. A lower Kd goes with tighter binding. In general, koff refers to the first-order rate constant of dissociation. Low values mean slow dissociation, high ones fast dissociation. By kon is commonly meant the rate constant with which the complex forms. A low value points to slow association. B1 registered a Kd of 480 nM, a koff of 0.156 s⁻¹ and a kon of 324000 M⁻¹ s⁻¹.
Consider B2, for which the Kd was 5.02 nM, the koff came to 0.00679 s⁻¹ and the kon is 1.35e+06 M⁻¹ s⁻¹.
The like results for B3 were, in that order, 4120 nM, 0.298 s⁻¹ and 72200 M⁻¹ s⁻¹.
Consider B4, for which the Kd was 5190 nM, the koff is 0.201 s⁻¹ and the kon was 38700 M⁻¹ s⁻¹.
Taken in the same sequence, the figures for B5 were 338 nM, 0.0681 s⁻¹ and 201000 M⁻¹ s⁻¹.
The like results for B6 were, in that order, 26600 nM, 0.916 s⁻¹ and 34400 M⁻¹ s⁻¹.
B7 yielded a Kd of 2390 nM, a koff of 0.211 s⁻¹ and a kon of 88300 M⁻¹ s⁻¹.
Taken in the same sequence, the figures for B8 were 15.7 nM, 0.0108 s⁻¹ and 685000 M⁻¹ s⁻¹.
Taken in the same sequence, the figures for B9 were 20.8 nM, 0.0272 s⁻¹ and 1.31e+06 M⁻¹ s⁻¹.
In turn, B10 came in with a Kd of 92.6 nM, a koff of 0.0673 s⁻¹ and a kon of 727000 M⁻¹ s⁻¹.

The target in a further test is T3, Cluster of differentiation 117 (CD117), antigen of epitope binning and ELISA (UniProt P10721 26-520, limits assumed).
T3 construct: also called tyrosine-protein kinase KIT; mast/stem cell growth factor receptor (SCFR)
T3 sequence (P10721 26-520 limits assumed): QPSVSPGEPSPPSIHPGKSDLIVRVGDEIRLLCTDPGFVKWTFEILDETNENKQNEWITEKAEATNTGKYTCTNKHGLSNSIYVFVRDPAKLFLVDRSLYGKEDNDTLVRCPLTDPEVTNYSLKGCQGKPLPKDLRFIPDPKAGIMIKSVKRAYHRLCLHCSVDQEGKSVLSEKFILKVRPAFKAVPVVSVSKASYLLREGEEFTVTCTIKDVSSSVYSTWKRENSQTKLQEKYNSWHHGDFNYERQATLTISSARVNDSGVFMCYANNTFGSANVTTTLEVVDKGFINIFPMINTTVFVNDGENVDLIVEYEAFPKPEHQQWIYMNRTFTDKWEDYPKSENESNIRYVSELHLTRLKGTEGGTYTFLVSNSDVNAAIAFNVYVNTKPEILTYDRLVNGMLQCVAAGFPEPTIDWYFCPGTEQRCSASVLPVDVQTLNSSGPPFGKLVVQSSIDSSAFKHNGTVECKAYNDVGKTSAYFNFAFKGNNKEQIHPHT
The test can be described thus: Carterra SPR, human CD117. The method, then: as §1
Consider B1, for which the Kd was 5.17 nM, the koff worked out at 0.00877 s⁻¹ and the kon turned out to be 1.7e+06 M⁻¹ s⁻¹.
The molecule B2 registered a Kd of 2.53 nM, a koff of 0.00336 s⁻¹ and a kon of 1.33e+06 M⁻¹ s⁻¹.
As to B3, the binding result is given as “no binding”.
With B4, the Kd was determined as 187 nM, the koff is 0.101 s⁻¹ and the kon came to 541000 M⁻¹ s⁻¹.
For the molecule B5, the affinity, expressed as Kd, was 270 nM; the koff was 0.0679 s⁻¹; the kon worked out at 252000 M⁻¹ s⁻¹.
For B6, the binding result is “no binding”.
For B7, the Kd is 670 nM, the koff turned out to be 0.201 s⁻¹ and the kon amounted to 300000 M⁻¹ s⁻¹.
Molecule B8 displayed a Kd of 9.51 nM, an off-rate (koff) of 0.0058 s⁻¹ and a kon of 610000 M⁻¹ s⁻¹.
For the molecule B9, the affinity, expressed as Kd, was 5.87 nM; the koff stood at 0.00388 s⁻¹; the kon was 662000 M⁻¹ s⁻¹.
As to B10, the Kd was found to be 3 nM, the koff is 0.00406 s⁻¹ and the kon stood at 1.35e+06 M⁻¹ s⁻¹.

The target in another test is T1, mouse CD117. Briefly: Carterra SPR, mouse CD117. The method, then:
as §1
For B1, the binding result is on record as “no binding”.
In the case of B2, the binding result was “no binding”.
On the same count and under the same terms, with B3 the entry was “no binding”; with B4, “no binding”.
Still for that read-out and setting: with B5 the entry was “no binding”; with B6, “no binding”; with B7, “no binding”.
On the same count and under the same terms, with B8 the entry was “no binding”; with B9, “no binding”; with B10, “no binding”.

Another test concerns the target T4, CD117 transiently expressed on Expi293 cells (UniProt P10721 26-976, limits assumed).
T4 construct: whole, on cells; Two cassettes are described (P2A mVenus and direct mVenus fusion); also called CD117 transient cells; the transient cell line
Briefly: FACS, MFI expressing / parental cells. As to the method:
(§2) The transient expression of CD117 was validated with a control antibody, Expi293 (FIGS. 17A-17B). Expi293, […], was transiently transfected with CD117 48-hours post-transfection. The secondary antibody used was APC Goat anti-human IgG (diluted 1:400). 100,000 cells per well were blocked with 1×PBS+0.5% BSA for 1 hour, stained with 100 μL of the primary antibody for 1 hour, and stained with the secondary antibody for one hour, all with 3× washes in between each staining.
(In general: A flow cytometer gives signals particle by particle.)
In the case of B1, the “MFI Ratio” value turned out to be 18.6.
Still for that read-out and setting: then B2, with 16.2.
Still for that read-out and setting: then B3, with 14.4.
Turning to B4, the “MFI Ratio” value amounted to 10.6.
Same read-out and setting: then B5, with 17.2; and B6, with 21.2.
For the molecule B7, the “MFI Ratio” value was 21.3.
On the same count and under the same terms, then B8, with 29.1.
The same measure, in the same setting: then B9, with 12.9.
The same measure, in the same setting: with B10 the figure was 20.1.

In a further test the target is T4, CD117 transiently expressed on Expi293 …. Briefly: FACS cell binding, Expi293 transiently expressing CD117. The method, then:
as §2
Broadly, the EC50 is the concentration at which the effect is half-maximal. A higher EC50 goes with weaker potency. Take B1: it took 11 nM to reach a half-maximal effect (EC50).
The same measure, in the same setting: then B2, with 20 nM.
Still for that read-out and setting: with B3 the figure was 6.24 nM.
The same measure, in the same setting: with B4 the figure was 1210 nM; with B5, 4.31 nM; with B6, 91.3 nM.
On to B7, for which it took 6.88 nM to reach a half-maximal effect (EC50).
Still for that read-out and setting: then B8, with 1.39 nM.
Same read-out and setting: with B9 the figure was 3.29 nM; with B10, 7.58 nM.
